The nature of this series: label from the status in PepcDB records.

As for “MDCIRNNSVLINNLSSFTSGIMSSGYSPFYILYIAMNIATLTYAVGTLFYGLPIPIYGLKKWGPRMMSDAIYAAVWVNIYGIIIFAIGQIQSLLGVDWSSFFSSILQLQANMFSALIQVKSLYYIITTEKISMALALLADPVLQFSSFITDIIFLLQFFIDLGEFIQQSYMILIAIGILLLSLPFRMGKGVGGTLISSAIIFYIGLPYLPIFMQEMSSITLSQIGSQLSTITDVNTLVETIAGVVPELVIVFIIIPMLYLSILAGISLGLGNAIGGSSGRVPFPLDLF”, the protein production entry is “failed”.

With “MDCKKFIQMVEEKKRRVLEKQEAPLKWEQKLEAAANAKADTETKVKRSKGPKRKQRAASESSSESDSSSEVRRKSRRSHNKHRRHAHSDSDDSDRRKEKKSRRQKRRSLSPSDDSTGDYESGSEDELRMKIKHHRRHKWHSSRKTCDDDSTEDVRRKHLKHHRRSEVVTSSDSEEESGRRRRGKYHRHNRGSASSSGSEEDSGKSMKRRQHKRHRLAESSSEEDGAMRRTRHHKHGRDSASESDGRR”, the protein production result is given as “failed”.

For “MDCRKMARFSYSVIWIMAISKVFELGLVAGLGHQEFARPSRGYLAFRDDSIWPQEEPAIRPRSSQRVPPMGIQHSKELNRTCCLNGGTCMLGSFCACPPSFYGRNCEHDVRKENCGSVPHDTWLPKKCSLCKCWHGQLRCFPQAFLPGCDGLVMDEHLVASRTPELPPSARTTTFMLVGICLSIQSYY”, the protein production result is “failed”.

Take “MDDAERERGPWHRNLIVLWFCTFVAGMAFSEIMPFLSLFVSQLGDFTKAQITFYSGLAFAADYAISAISAPLWGIIADKKGRKIMLLRASLGMAVAMGLMGFVTNVWQLVALRALQGVFAGFISNAQALVASQTPRKYSGRALSTLITGAVSGQLFGPVIGGLLAQLFSIRNTFFITAGLLMVAFLLSLFFVQEHFKPVAHHREPGDSRNPLAAFQNPRLIIVMLCSTAIVQFGNASIAPIISLYVRELMHYRGPITVVAGIIAALPGISNIFSAPRLGRYGDQHGSGKVLLFGYIFAVIMYFPQGIVTSVVALGILRFAIGISDGALYPEIQTVLTKNTPVHLTSTIFSYNQSFQAIGNMFGALLGGLVAGWFNYNAVFIMTALLLLINLGLILWLVPDIWKNGKRAVS”: the protein production entry is “failed”.

Consider “MDDETLRLQFGHLIRILPTLLEFEKKGYEPSLAEIVKASGVSEKTFFMGLKDRLIRAGLVKEETLSYRVKTLKLTEKGRRLAECLEKCRDVLGS”, for which the protein production entry is “not failed”.

Turning to “MDDSKSSYKLGLFVVSALVSLFVVLFILGGRSLFEPKIIVETYFDESVSGLEVGAPVRFRGITAGEVVSIELSDALYEAAVPRENRKSYVVVRSEITGAKRTIEEWNRSIEISIERGLRATTQLAGITGQQYLSFDYTSMDEGLSFNWKPNYPYVPSTKSSAGKIVSGIQSLIARLDEADINTLVANINMLIETLNQSISALDADALNAQLLALLINSNQMVKSVDGVISDPEVKEIVSSLAQISKSLNSSLKDKGDINKLIKHLDRAAVRLDVIMADNQSDINYVIKDLRVTVENLKSFSETLKNQPSSIIFSSEPEKLKIN”, the protein production entry was “failed”.

On to “MDDVQVERILQNPKFKKMVSKKATLSWTLTIIMLIVYVGFMLLVGYNKEFLMSSFSGGVTTWGIPLGLGIIVLSFVLCGVYSYIANNTLDQLNEEALREVENITHEKGLH”, for which the protein production entry is “failed”.

For “MDECTVTRHYEGKGRNAGRLGAVGCKNRHGEFRIGSGFKDKDRDNPPKIGTLITYRYRGFTRKGTPKFATFVRVRTDLEHHHHHH”, the protein production entry was “not failed”.

Turning to “MDEKNIVALLGQPNVGKTTLFNHLTGMKQRIGNWPGVTVEKKEGFFKKNNENYVVVDLPGIYSLMSDSIDQKIARDYIVENSKITVIDVIDTPNINRNLYLTIQLLELGISPILCLNLIDEAEKFGIYVNDQKLSEKLGVPVIRTSGRHKIGIDNLKNALYEFKPTEPVKITYSSLLEETIEKIIDKLENSQYKLDEIYARLPKRWIAISLLEKDPDVVNKFSKYPEFIKFVKDLKIEIENEIKHDVESYVVEQRYKKCDEILAGVMVNSELYEDIDTIVIHPVYGSLIFGVVLYTMYNFVFGLGDIFSGFIGSFFEILGNYLMNILPESFSGVIIDGLLAGVGGVLEFFPIVFLIMFSLSTLEDTGYLSRVTALTHSVMSTMGLSGKSFIPMITGFGCSVPALMGTRFISSHKERLITLLVTPLVPCSARFVIIGFFASFFFIEHAALFTLSILAITFAMLFIVSYVLSKFIKGEAEEYIFELPPYRIPDWDNIIKMTWAKSKEFLKKAGTVIAAGSILFYGFVNYPSPDANYAAVVGKIIEHVTQYMGLDWRAAISLIFGIFAKELVVSSFSILYPENISTAFSPLKAFVLTLVSVLYIPCLATLATLYLETRSLKWTAFGIGYNLVLATLVGIITYNIGTMLGF”, the protein production result is “failed”.

“MDELAGGGGGGQGMAAPPRPQQGPGGNLSLPPGANGAPGGGGPPAAEAAGPPAGPELSRPQQYTIPGILHYIQHEWARFEMERAHWEVERAELQARIAFLQGERKGQENLKKDLVRRIKMLEYALKQERAKYHKLKYGTELNQGDLKMPTFESEETKDVEAPPAPQNSQLTWKQGRQLLRQYLQEVGYTDTILDVRSQRVRSLLGLSNSEPNGSVEAKNLEQILNGGESPKQKGQEIKRPPGDVLETFNFLENADDSDEEENDMIEGIPEGKDKLRIHKHKIGNEGLAADLTDDPDTEEALKEFDFLVTAEDGEGAGEARSSGDGTEWDKDDLSPTAEVWDVDQGLISKLKEQYKKERKGKKGVKRVNRTNLCDMITDLGDDELPHIPSGIINQSRSASTRMADHEGARAEEAEPITFPSGGGKSFIMGSDDVLLSVLGLGDLADLTVTNDADYSYDLPANKDAFRKTWNPKYTLRSHFDGVRALAFHPVEPVLVTASEDHTLKLWNLQKTVPAKKSASLDVEPIYTFRAHIGPVLSLAISSNGEQCFSGGIDATIQWWNMPSPNVDPYDTYESNVLAGTLVAHTDAVWGLAYSGIKNQLLSCSADGTIRLWNPQEKLPCVCTYNGDKEHGIPTSVDFIGCDPAHMVTSFNTGSAVIYDLETSQSLVMLSSQVDSGLQSSNHINRVVSHPTLPVTITAHEDRHIKFFDNKTGKMIHSMVAHLDAVTSLAVDPNGIYLMSGSHDCSIRLWNLDSKTCVQEITAHRKKLDESIYDVAFHPSKAYIASAGADALAKVFV”: the protein production entry was “failed”.

Turning to “MDELLEKAKKVREAWDVLRNATTREKNKAIKKIAEKLDERRKEILEANRIDVEKARERGVKESLVDRLALNDKRIDEMIKACETVIGLKDPVGEVIDSWVREDGLRIARVRVPIGPIGIIYESRPNVTVETTILALKSGNTILLRGGSDALNSNKAIVSAIREALKETEIPESSVEFIENTDRSLVLEMIRLREYLSLVIPRGGYGLISFVRDNATVPVLETGVGNCHIFVDESADLKKAVPVIINAKTQRPGTCNAAEKLLVHEKIAKEFLPVIVEELRKHGVEVRGCEKTREIVPDVVPATEDDWPTEYLDLIIAIKVVKNVDEAIEHIKKYSTGHSESILTENYSNAKKFVSEIDAAAVYVNASTRFTDGGQFGFGAEIGISTQRFHARGPVGLRELTTYKFVVLGEYHVRE”, the protein production result is “not failed”.

Take “MDERNVSKPAMRGHKLVLNNRTASLVTGVKDVLSFDLNEVLLETEQGMLMVKGTDLHVNRLSLEKGEVDLSGNIDSIAYSDVHAEQKQGENLFARLFR”: the protein production result is “failed”.

For the sequence “MDESAALRAFQDALRTQRPEFGQFFLARLLGLDISYPDGQCLIVFEPQDFLFNPQGSLHGGIIATVMDISMGHLLNHVQGAGLTLEMKTQYLKAVRQGTVYCRGEFLQRGRSVSFLKSTLTDAQGEPLAMATSTWKALSPLEHHHHHH”, the protein production result is given as “not failed”.

With “MDETVAEFIKRTILKIPMNELTTILKAWDFLSENQLQTVNFRQRKESVVQHLIHLCEEKRASISDAALLDIIYMQFHQHQKVWDVFQMSKGPGEDVDLFDMKQFKNSFKKILQRALKNVTVSFRETEENAVWIRIAWGTQYTKPNQYKPTYVVYYSQTPYAFTSSSMLRRNTPLLGQELEATGKIYLRQEEIILDITEMKKACN”, the protein production entry was “failed”.

On to “MDFDLRWLFIAASLGLCAWAGWQFVHRLARARLLGDVPTSRIRSAAQGFVELYGVLEEGPEGPLQAPLTGKPCLWWRYRIEVEEKRSGREKAWRTVDKGASESPFSLRDATDACLVDPRGAEVRPLTQQRWEAFREAPIDTLRLLESFGTLVGGERLYRYTEERLHAGEPLYALGEFRSSGGGRQGLDAERAQGAVIREWKGDFHGLLARFDSDGNGELDEREWNRVRLAARLEAEDRHRASSAAPTRHRLGKPGEAHPFILSSQGEDDLAVQLRRQAAGAALLCLGSALLAGWLFSRLF”, for which the protein production entry is reported as “failed”.

On to “MDFDLWWLLAIPLVFGLGWVAARLDARQLLTEQASLPRSYFKGLNFLLNEQPDKAIDAFIEVARLDPETTELHFALGSLFRRRGETERAIRVHQNLVNRPDLPANERDHALYELGQDFLRAGLLDRAEESLRMLMEGVFAEPAKRVLLELYEVEKEWRKAIDAARELQTLQGQDYSVQIAQFCCELAQESLQRKDVSAAVEWLERALQENPKNVRATIQLGDVALGKGDTEGAIKRWRSIEQQNPAFLPLVAERLMKAYAQLGRAAEGLAWLRSKMDARLGPELLDVVYRYELDVHGIDDAVALMREQIRRQPSLMALTRLVEAEATRASEAVSHEAAAVAAPISDSALADPVEAGSNADIQRAQDLGAIRDLLQSRTRNLARYTCQECGFRARLFYWQCPGCNRWETYAPRRTEALGGSGGASM”, for which the protein production result is listed as “failed”.

Regarding “MDFDTIQIDYEKEETVMIGRAADKIFTRVFIFLIMTVYFWIYTVAGLVVLGIGPAFRTVTEMHMDKQWDYRLYHFKEGWQRFKRHFWQMNLHTWLFLGVGAVLAYNLYLSLSIHTLWIIFIQFIIVFALILDFSLAIFTVMLRSRYDVAFKDAIKLAIVQFFSNFTQLLTFIIGTIVLIVISLKWPGMILFLSPGIYMVGADRLSRRWYDKIDKMLGAV”, the protein production result is “failed”.

Consider “MDFECQFVCELKELAPVPALLIRTQTTMSELGSLFEAGYHDILQLLAGQGKSPSGPPFARYFGMSAGTFEVEFGFPVEGGVEGSGRVVTGLTPSGKAASSLYIGPYGEIEAVYDALMKWVDDNGFDLSGEAYEIYLDNPLEHHHHHH”, for which the protein production result is listed as “failed”.

Take “MDFKTVMQELEALGKERTKKIYISNGAHEPVFGVATGAMKPIAKKIKLNQELAEELYATGNYDAMYFAGIIADPKAMSESDFDRWIDGAYFYMLSDYVVAVTLSESNIAQDVADKWIASGDELKMSAGWSCYCWLLGNRKDNAFSESKISDMLEMVKDTIHHSPERTKSAMNNFLNTVAISYVPLHEKAVEIAKEVGIVEVKRDNKKSSLLNASESIQKELDRGRLGFKRKYVRC”: the protein production result is on record as “not failed”.

In the case of “MDFLGILCLLILATTLAGHFAHRAGIPAVIGEILVGVILGPALLNWVHLTTLVQTFSDIGVVVLMFIGGLESNLALLRKYLRPAIIVAIIGVIFPVVIMGLASRFFQFSWFESLFIGVIFSATSVSISVEVLKEFKVLDTKEGATILGAAVADDIIGVILLSIMIAMMGGQSGVAQTNLGIVLLEQVGFFIGVFIVIKWVAPYLMRLSDHLLMAASPTIMAIIICLALAWLAELVGLSGAIGAFFAGVAIAQTDYQHVVDVSIEPVGYTTFIPLFFVSVGLNMTFKGVWQSLPFIVVMTVLGVLTKLWGCGLGAKLNGFSRHSNYLVGAGMISRGEMALITAQIGFSAHLLSNDYYSDIILVIIVVTMIAPFVLKNAIHRAGQVTATHSIIEEH”, the protein production entry is listed as “failed”.

For “MDFLVAHFNLLRGLHILAVIAFMAGMLYLPRLFVYHTKATPGSQMDETFKVMERRLLRGIINPASIATAVFGLGLILADAQIRGWDFLLQPWMIAKLVALVGLYGFHGFLSASRKKFERGENVRSEKFWRMVNEIPFVLAIVIVMSVTTKYLNH”, the protein production entry is listed as “failed”.

Values taken from a protein production outcome set (Wang et al. 2014).
